In test [1] the target is T1, Recombinant human CTLA-4-Fc fusion protein (R&D Systems, Catalog number 352-CTY/CF) (human, UniProt P16410 37-162).
T1 construct: range 37-162; Bought reagent; also called rhCTLA-4; rhCTLA-4-Fc; not shown: immunoglobulin gamma I Fc region
T1 sequence (looked up): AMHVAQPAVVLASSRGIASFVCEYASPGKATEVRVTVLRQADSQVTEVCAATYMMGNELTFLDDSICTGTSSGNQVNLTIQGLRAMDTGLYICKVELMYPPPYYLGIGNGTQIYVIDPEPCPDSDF
Description: competition ELISA on coated rhCTLA-4-Fc, 10 ng/ml biotin-B7-1-Fc mixed with the antibody, streptavidin alkaline phosphatase, absorption at 405 nm. (ELISA stands for enzyme-linked immunosorbent assay.)

Test [2] deals with T1, Recombinant human CTLA-4-Fc fusion …. Description: ELISA, plates coated with purified rhCTLA-4, 4-parameter fit; C2 mAb.
The target is the same in test [3]. Description: ELISA on coated rhCTLA-4, goat anti-human IgG F(ab') alkaline phosphatase, OD 415 nm.
For test [4] the target is unchanged. As to the kind of experiment: BLI (Fortebio), mAb captured on sensors, rhCTLA-4-Fc in solution 100 nM to 1.6 nM. As for the experimental part: Kinetic analysis of binding to rhCTLA-4. […] The sensors were then blocked in the blocking solution for 5 min. Recombinant human CTLA-4-Fc protein was two-fold serial diluted in the blocking solution to 7 different concentrations, range from 100 nM to 1.6 nM. Kinetic association assays were started by putting antibody-capturing sensors into above serial diluted CTLA-4-Fc solutions. One sensor was immersed into the blocking solution as negative control. After 5 min binding, all sensors were moved to the blocking solution to start kinetic dissociation assays. Assays were stopped after 7 min.
(In general: Biolayer interferometry detects binding as a change in optical thickness at a sensor tip.)

Test [5] shares this target. As to the kind of experiment: ELISA on coated CTLA-4 (rhCTLA-4-Fc), scFv phage at one amount, anti-M13-HRP, absorbance at 450 nm.
The target is the same in test [6]. Description: ELISA, plates coated with purified rhCTLA-4, 4-parameter fit; C5 mAb.
The target is the same in test [7]. Description: ELISA on coated rhCTLA-4, goat anti-human IgG F(ab') alkaline phosphatase, OD 415 nm. This is another data set of the same source.

The EC50 is the concentration giving half of the maximal effect. A word on the EC50 (read off the curve): it is the concentration that produces a half-maximal response. One may read the Kd as the equilibrium constant for the complex coming apart. Broadly, the koff is the first-order rate constant of dissociation. Broadly, the kon is a measure of how fast the partners come together.

Like-named read-outs stand apart in the source and are kept apart here.

B1: C2 mAb (anti-human CTLA-4 full length human monoclonal antibody) (antibody, V domains shown)
VH: QVQLVQSGGGVVQPGRSLRLSCAASGFTFSSYGMHWVRQAPGKGLEWVAVIWYDGSRQYYADSVKGRFTISRDDSKNTMYLQMNSLRAEDTAVYYCARGGFWGAFDIWGQGTMVTVSS
VL: DVVMTQSPGTLSLSPGEGATLSCRASQHVISSYLAWYQQKPGQAPRLLVYGASSRDTGVSDRFTGSGSGTDFTLTISRLEPEDSAVYFCQQYGTSPWTFGQGTKLEIKR
notes: also called clone C2; KD6001-2
As to B1, the “IC50 (read off the curve)” value in test [1] was around 0.03 µg/mL. Moreover, the EC50 in test [2] worked out at 0.025 µg/mL. Moreover, the “EC50 (read off the curve)” value in test [3] is around 0.03 µg/mL. Further, in test [4], the dissociation constant (Kd) is 0.86 nM, the koff came to 0.00048 s⁻¹ and the kon worked out at 550000 M⁻¹ s⁻¹.

B2: C15 (scFv, V domains shown, not shown: large carriers; small tags and cut ends)
VH: QVQLVQSGAEVKKPGSSVKVSCKASGGTFSSYAISWVRQAPGQGLEWMGGIIPIFGTANYAQKFQGRVTITADESTSTAYMELSSLRSEDTAVYYCARDTAMALFYYYYGMDVWGQGTLVTVSS
VL: QSALTQPASVSGSPGQSTTISCTGTSSDVGGYNYVSWYQQHPGKAPKLMIYEVSNRPSGVSNRFSGSKSGNTASLTISGLQAEDEADYYCSSYRSSGTPYVFGTGTKLTVL
notes: scFv phage form of clone C15; also called clone C15 scFv phage; C15 scFv; copies: 1 + 1
For the molecule B2, the binding result in test [5] was “binds”.

B3: C5 mAb (anti-human CTLA-4 full length human monoclonal antibody) (antibody, V domains shown)
VH: QVQLVQSGAEVKKPGASVKVSCKASGFSFPNYYMHWVRQAPGQGLEWMGIISPTGGSRTYAQKFQGRVTITRDTSTSTVYMELSSLRSEDTAVYYCAREMYNWNGGWDYGMDVWGQGTLVTVSS
VL: QSALTQSASVSGFPGQSITVSCVGTNSDVEAYDLVSWYRQHPDKSPNLLIYDNYKRPSGVSDRFSAFKSGNTASLTISGLQAEDEAYYYCCSYAGFSTWIFGAGTQLTVLG
notes: also called clone C5; KD6001-5
For B3, the EC50 in test [6] is 0.066 µg/mL. In addition, the half-maximal effective concentration (EC50 (read off the curve)) in test [7] is around 0.08 µg/mL. In test [4], the Kd is 2.2 nM, the koff came out at 0.00061 s⁻¹ and the kon stood at 280000 M⁻¹ s⁻¹.
